The target in the test is PpbHLH1 (Phalaenopsis pulcherrima).

PpMYB1 (natural protein) had a dual-luciferase assay in tobacco leaves: PpANS promoter activity with PpMYB1 and PpbHLH1 co-expressed, against PpMYB1 alone of 4.7 fold.

The values above are taken from PMC12292641.
